The values below are quoted from earlier work in paper PMC12874384.

The target in one series is Asp260 (UniProt position 260, SCGVADLITTC). Kind of series: kinetics (pH-rate profile). The note with it: kcat/Km profile for reaction of DHAP dianion in the presence of NADH.
For series [1], the target named is T1, Lys204 (UniProt position 204, ICGALKNVVAV). In words: kinetics (pH-rate profile). The settings on record: kcat/Km profile for reaction of DHAP dianion in the presence of NADH.
The subject of series [2] is Glu165. In words: kinetics (competitive inhibition, pH dependence of Ki). The settings on record: enzyme•PGA trianion complex (closed, inhibitor-bound).
For series [3], the target named is Glu165 (UniProt position 165, VVLAYEPVWAI). Described as above. The note with it: enzyme•PGA trianion complex (closed, inhibitor-bound).
Series [4] has as its target Glu165 (UniProt position 165, VVVAYEPVWAI). The series is described as above. The settings on record: enzyme•PGA trianion complex (closed, inhibitor-bound).
The target of series [5] is T1, Lys204. Kind of series: kinetics (pH-rate profile of chemical rescue). The settings on record: K120A variant with EtNH3+ activator, DHAP and NADH.

As usually defined, the pKa is the negative logarithm of the acid dissociation constant. Consider “Glycerol 3-phosphate dehydrogenase [NAD+], human liver (hlGPDH) (Homo sapiens)”, for which the pKa in the series with Asp260 is on record as 4.4; with Lys204 [1] it was 7.6.
As for “TbbTIM I170A variant (I172A in TbbTIM numbering) (Trypanosoma brucei brucei; I170A)”, the pKa in the series on Glu165 [2] is recorded as 7.7.
In the case of “TbbTIM P166A variant (P168A in TbbTIM numbering) (Trypanosoma brucei brucei; P166A)”, the pKa with Glu165 [2] is recorded as 9.3.
On to “TbbTIM P166A/I170A double variant (P168A/I172A in TbbTIM numbering) (Trypanosoma brucei brucei; P166A;I170A)”, for which the pKa with Glu165 [2] was 7.8.
For “Triosephosphate isomerase, Trypanosoma brucei brucei (TbbTIM) (Trypanosoma brucei brucei)”, the pKa entry with Glu165 [2] is “≈ 11”.
As to “Triosephosphate isomerase, chicken (cTIM) (Gallus gallus)”, the pKa entry in the series with Glu165 [3] was “≈ 11”.
On to “Triosephosphate isomerase, yeast (yTIM) (Saccharomyces cerevisiae)”, for which the pKa result with Glu165 [4] was “≈ 11”.
Consider “cTIM loop 7 replacement variant (L7RM, 208-TGAG-211) (Gallus gallus; Y208T;G210A;S211G)”, for which, in the series with Glu165 [3], the pKa is given as 6.7.
As to “hlGPDH K120A variant (Homo sapiens; K120A)”, the pKa is on record as 5.0 with Asp260, 7.6 with Lys204 [1] and 7.7 with Lys204 [5].
Turning to “yTIM S211A variant (Saccharomyces cerevisiae; S211A)”, in the series with Glu165 [4], the pKa is 8.2.
In the case of “yTIM Y208F variant (Saccharomyces cerevisiae; Y208F)”, the pKa in the series with Glu165 [4] is given as 6.3.
